In patent publication US20190241648A1 (STATEN BIOTECHNOLOGY B V, published 2019):
Ends that are not written are not given here.

Columns and labels:
Assay in all cases: cyclic peptide substitution array
[1] = biological target: T1, ApoC3 peptide F64A (human, cyclic (thioether))
T1 peptide: DKFSEAWDLDPEV
Description: (§1) S62 and D68 of mature huApoC3 were also highly conserved; substitution of S62 by A or V, and substitution of D68 by E or P, caused decrease of spot intensities by ˜60% or higher. […] Amino acid F64 was completely variable.
(§2) Pre: staining of one of the ApoC3 peptide microarrays was done with the secondary antibody goat anti-human IgG (Fe) DyLight680 (1:5000) and control antibody mouse monoclonal anti-HA (12CA5) DyLight800 (1:2000) to investigate background interactions of the secondary antibody with the antigen-derived peptides that could interfere with the main assays. Subsequent incubation of other ApoC3 peptide microarrays with antibody samples was followed by staining with secondary and control antibodies as well as read-out at scanning intensities of 7/7 (red/green). The additional HA peptides framing the peptide arrays were stained as internal quality control to confirm the assay quality and the peptide microarray integrity.

[2] = biological target: T2, ApoC3 peptide V71E (human, thioether (positions not given here); also: cyclic (thioether), ring places not given here)
T2 peptide: DKFSEFWDLDPEE
Description: as §1, §2

[3] = biological target: T3, ApoC3 peptide E70T (human, cyclic (thioether))
T3 peptide: DKFSEFWDLDPTV
Description: as §1, §2

[4] = biological target: T4, ApoC3 peptide S62R (human, thioether (positions not given here); also: cyclic (thioether), ring places not given here)
T4 peptide: DKFREFWDLDPEV
Description: as §1, §2

[5] = biological target: T5, ApoC3 peptide S62V (human, thioether (positions not given here); also: cyclic (thioether), ring places not given here)
T5 peptide: DKFVEFWDLDPEV
Description: as §1, §2

[6] = biological target: T6, ApoC3 peptide W65E (human, not fully specified; cyclic (thioether))
T6 peptide: DKFSEFEDLDPEV
Description: as §1, §2

[7] = biological target: T7, ApoC3 peptide D59W (human, thioether (positions not given here); not fully specified (C-terminus, bridges); also: cyclised via thioether between a C-terminal Cys and a modified N-terminus, the Cys and the N-terminal …)
T7 peptide: WKFSEFWDLDPEV
Description: as §1, §2

[8] = biological target: T8, ApoC3 peptide W65D (human, not fully specified; cyclic (thioether))
T8 peptide: DKFSEFDDLDPEV
Description: as §1, §2

[9] = biological target: T9, ApoC3 peptide D66W (human, cyclic (thioether))
T9 peptide: DKFSEFWWLDPEV
Description: as §1, §2

[10] = biological target: T10, ApoC3 peptide F64S (human, thioether (positions not given here); not fully specified (bridges); also: cyclic (thioether), positions not given here)
T10 peptide: DKFSESWDLDPEV
Description: as §1, §2

[11] = biological target: T11, ApoC3 peptide D59A (human, thioether (positions not given here); not fully specified (C-terminus, bridges))
T11 peptide: AKFSEFWDLDPEV
Description: as §1, §2

[12] = biological target: T12, ApoC3 peptide D59E (human, thioether (positions not given here); not fully specified (C-terminus, bridges))
T12 peptide: EKFSEFWDLDPEV
Description: as §1, §2

[13] = biological target: T13, ApoC3 peptide D68I (human, cyclic (thioether))
T13 peptide: DKFSEFWDLIPEV
Description: as §1, §2

[14] = biological target: T14, ApoC3 peptide D59C (human, thioether (positions not given here); not fully specified (C-terminus, bridges))
T14 peptide: CKFSEFWDLDPEV
Description: as §1, §2

[15] = biological target: T15, ApoC3 peptide D68G (human, cyclic (thioether))
T15 peptide: DKFSEFWDLGPEV
Description: as §1, §2

[16] = biological target: T16, ApoC3 peptide W65C (human, not fully specified; cyclic (thioether))
T16 peptide: DKFSEFCDLDPEV
Description: as §1, §2

[17] = biological target: T17, ApoC3 peptide D59S (human, thioether (positions not given here); not fully specified (C-terminus, bridges); also: cyclised via thioether between a C-terminal Cys and a modified N-terminus, the Cys and the N-terminal …)
T17 peptide: SKFSEFWDLDPEV
Description: as §1, §2

[18] = biological target: T18, ApoC3 peptide W65S (human, cyclic (thioether))
T18 peptide: DKFSEFSDLDPEV
Description: as §1, §2

[19] = biological target: T19, ApoC3 peptide S62K (human, thioether (positions not given here); also: cyclic (thioether), ring places not given here)
T19 peptide: DKFKEFWDLDPEV
Description: as §1, §2

[20] = biological target: T20, ApoC3 peptide E63S (human, cyclic (thioether))
T20 peptide: DKFSSFWDLDPEV
Description: as §1, §2

[21] = biological target: T21, ApoC3 peptide S62Y (human, thioether (positions not given here); also: cyclic (thioether), ring places not given here)
T21 peptide: DKFYEFWDLDPEV
Description: as §1, §2

[22] = biological target: T22, ApoC3 peptide F64R (human, thioether (positions not given here); not fully specified (bridges); also: cyclic (thioether), positions not given here)
T22 peptide: DKFSERWDLDPEV
Description: as §1, §2

[23] = biological target: T23, ApoC3 peptide S62Q (human, thioether (positions not given here); also: cyclic (thioether), ring places not given here)
T23 peptide: DKFQEFWDLDPEV
Description: as §1, §2

[24] = biological target: T24, ApoC3 peptide V71S (human, not fully specified; cyclic (thioether))
T24 peptide: DKFSEFWDLDPES
Description: as §1, §2

[25] = biological target: T25, ApoC3 peptide F64C (human, cyclic (thioether))
T25 peptide: DKFSECWDLDPEV
Description: as §1, §2

[26] = biological target: T26, ApoC3 peptide F64G (human, thioether (positions not given here); not fully specified (bridges); also: cyclic (thioether), positions not given here)
T26 peptide: DKFSEGWDLDPEV
Description: as §1, §2

[27] = biological target: T27, ApoC3 peptide E63T (human, cyclic (thioether))
T27 peptide: DKFSTFWDLDPEV
Description: as §1, §2

[28] = biological target: T28, ApoC3 peptide S62W (human, thioether (positions not given here); also: cyclic (thioether), ring places not given here)
T28 peptide: DKFWEFWDLDPEV
Description: as §1, §2

[29] = biological target: T29, ApoC3 peptide D59K (human, thioether (positions not given here); not fully specified (C-terminus, bridges))
T29 peptide: KKFSEFWDLDPEV
Description: as §1, §2

[30] = biological target: T30, ApoC3 peptide D68H (human, cyclic (thioether))
T30 peptide: DKFSEFWDLHPEV
Description: as §1, §2

B1: Llama antibody 5E5 (antibody, V domains shown)
VH: QLQLVESGGGLVQPGGSLRLSCAASGFTFGTYSMRWVRQVPRKALEWVSSISTDGGGTAYRDSVKGRFTISRDNAKNTLYLQMNNLKPEDTAIYYCVIAGYSDWGQGTQVTVSS
VL: ATMLTQSPGSLSVVPGESASISCKTSQGLVHSDGKTYFYWFLQKPGQSPQQLIYQVSNRASGVPDRFTGSGSGTDFTLKISGVKAEDAGVYYCAQGTYYPHTFGSGTRLEIK
notes: detected with goat anti-human IgG (Fc); also called mAb 5E5
- % of binding to wild-type peptide [1]: 220%
- % of binding to wild-type peptide [2]: 127%
- % of binding to wild-type peptide [3]: 83%
- % of binding to wild-type peptide [4]: 1.45%
- % of binding to wild-type peptide [5]: 30.5%
- % of binding to wild-type peptide [6]: 0%
- % of binding to wild-type peptide [7]: 56.8%
- % of binding to wild-type peptide [8]: 0%
- % of binding to wild-type peptide [9]: 0%
- % of binding to wild-type peptide [10]: 367%
- % of binding to wild-type peptide [11]: 44.4%
- % of binding to wild-type peptide [12]: 128%
- % of binding to wild-type peptide [13]: 0%
- % of binding to wild-type peptide [14]: 66.2%
- % of binding to wild-type peptide [15]: 3.59%
- % of binding to wild-type peptide [16]: 0.08%
- % of binding to wild-type peptide [17]: 57.7%
- % of binding to wild-type peptide [18]: 0%
- % of binding to wild-type peptide [19]: 4.05%
- % of binding to wild-type peptide [20]: 47.9%
- % of binding to wild-type peptide [21]: 0%
- % of binding to wild-type peptide [22]: 73.7%
- % of binding to wild-type peptide [23]: 1.13%
- % of binding to wild-type peptide [24]: 74.1%
- % of binding to wild-type peptide [25]: 51%
- % of binding to wild-type peptide [26]: 212%
- % of binding to wild-type peptide [27]: 0%
- % of binding to wild-type peptide [28]: 0%
- % of binding to wild-type peptide [29]: 30.6%
- % of binding to wild-type peptide [30]: 0%
